From publication PMC8163392, “Interrogating surface versus intracellular transmembrane receptor populations using cell-impermeable SNAP-tag substrates†” (Chemical Science, 2020)

Target: the molecule itself
Assay: single molecule pulldown (SiMPull) with counting of photobleaching steps; surface receptors labelled on live cells with 1 uM SBG-JF549; cells lysed in 1.2% IGEPAL, lysate diluted in 0.1% IGEPAL; receptors captured at low density by biotinylated anti-HA antibody on NeutrAvidin/PEG coverslips; TIRF imaging

B1: HA-SNAP-metabotropic glutamate receptor 2 (receptor, UniProt P31421 19-872, looked up)
chain: EGPAKKVLTLEGDLVLGGLFPVHQKGGPAEECGPVNEHRGIQRLEAMLFALDRINRDPHLLPGVRLGAHILDSCSKDTHALEQALDFVRASLSRGADGSRHICPDGSYATHSDAPTAVTGVIGGSYSDVSIQVANLLRLFQIPQISYASTSAKLSDKSRYDYFARTVPPDFFQAKAMAEILRFFNWTYVSTVASEGDYGETGIEAFELEARARNICVATSEKVGRAMSRAAFEGVVRALLQKPSARVAVLFTRSEDARELLAATQRLNASFTWVASDGWGALESVVAGSERAAEGAITIELASYPISDFASYFQSLDPWNNSRNPWFREFWEERFHCSFRQRDCAAHSLRAVPFEQESKIMFVVNAVYAMAHALHNMHRALCPNTTHLCDAMRPVNGRRLYKDFVLNVKFDAPFRPADTDDEVRFDRFGDGIGRYNIFTYLRAGSGRYRYQKVGYWAEGLTLDTSFIPWASPSAGPLPASRCSEPCLQNEVKSVQPGEVCCWLCIPCQPYEYRLDEFTCADCGLGYWPNASLTGCFELPQEYIRWGDAWAVGPVTIACLGALATLFVLGVFVRHNATPVVKASGRELCYILLGGVFLCYCMTFVFIAKPSTAVCTLRRLGLGTAFSVCYSALLTKTNRIARIFGGAREGAQRPRFISPASQVAICLALISGQLLIVAAWLVVEAPGTGKETAPERREVVTLRCNHRDASMLGSLAYNVLLIALCTLYAFKTRKCPENFNEAKFIGFTMYTTCIIWLAFLPIFYVTSSDYRVQTTTMCVSVSLSGSVVLGCLFAPKLHIILFQPQKNVVSHRAPTSRFGSAAPRASANLGQGSGSQFVPTVCNGREVVDSTTSSL
modifications: JF549 (two-colour experiment: JF549 or JF646) covalently attached to the SNAP-tag
notes: metabotropic glutamate receptor 2 (mGluR2), class C GPCR; The rat receptor is my surmise; also called HA-SNAP-mGluR2; SNAP-mGluR2; source: HEK 293T, transfected, in lysate (1.2% IGEPAL); not shown: SNAP-tag, N-terminal, kept
stoichiometry N: 2
